The record followed here is article PMC5735676, “Leishmania braziliensis SCD6 and RBP42 proteins, two factors with RNA binding capacity”.

The target in data set [1] is T1, rLbRBP42 (Leishmania braziliensis, UniProt A4HIP3 1-338).
T1 sequence: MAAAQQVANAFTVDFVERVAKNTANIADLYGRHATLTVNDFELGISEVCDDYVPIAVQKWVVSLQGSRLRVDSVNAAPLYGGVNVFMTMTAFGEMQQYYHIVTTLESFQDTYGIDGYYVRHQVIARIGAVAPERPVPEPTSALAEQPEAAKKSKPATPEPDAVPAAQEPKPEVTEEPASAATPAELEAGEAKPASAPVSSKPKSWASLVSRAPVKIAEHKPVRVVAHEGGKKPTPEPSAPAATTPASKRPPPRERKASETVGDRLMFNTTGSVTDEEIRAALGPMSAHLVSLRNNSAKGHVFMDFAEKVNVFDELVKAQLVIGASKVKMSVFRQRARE
The data set can be described thus: competition; vs 12.5 nM labeled N2; up to 8-fold (100 nM) cold RNA; EMSA: 10 mM HEPES pH 7.3, 20 mM KCl, 6 mM MgCl2, 1 mM DTT, 0.05% NP-40, 1 ug/ul heparin, 40 U RNaseOUT, room temperature 20 min, 6% native PAGE 0.5x TBE; pull-down at room temperature on His-tag Dynabeads, 1x pull-down buffer (composition not stated). The settings on record: protein: recombinant; tags: His tag (nickel column). For orientation: Mobility shift assays separate free from complexed probe on a gel.

Data set [2] concerns the target T2, rLbSCD6 (Leishmania braziliensis, UniProt A4HEG4 1-294).
T2 sequence: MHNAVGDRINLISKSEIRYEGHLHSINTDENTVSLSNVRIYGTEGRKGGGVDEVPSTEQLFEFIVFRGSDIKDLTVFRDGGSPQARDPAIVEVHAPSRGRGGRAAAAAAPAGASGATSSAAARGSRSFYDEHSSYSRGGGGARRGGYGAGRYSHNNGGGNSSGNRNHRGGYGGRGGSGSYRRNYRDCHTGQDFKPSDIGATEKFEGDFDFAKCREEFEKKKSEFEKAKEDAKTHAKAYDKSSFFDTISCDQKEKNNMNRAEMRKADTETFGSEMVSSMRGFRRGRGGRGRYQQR
Described as above. The settings on record: protein: recombinant; tags: His tag (nickel column).

Data set [3] addresses T2, rLbSCD6. The data set can be described thus: EMSA; 6 mM Mg2+, heparin; 12.5 nM RNA; EMSA: 10 mM HEPES pH 7.3, 20 mM KCl, 6 mM MgCl2, 1 mM DTT, 0.05% NP-40, 1 ug/ul heparin, 40 U RNaseOUT, room temperature 20 min, 6% native PAGE 0.5x TBE; pull-down at room temperature on His-tag Dynabeads, 1x pull-down buffer (composition not stated). The settings on record: protein: recombinant; tags: His tag (nickel column); label: 5' digoxigenin.

Data set [4] deals with T1, rLbRBP42. The data set is described as follows: EMSA; 6 mM Mg2+, heparin; 3 pM protein, 12.5 nM RNA; EMSA: 10 mM HEPES pH 7.3, 20 mM KCl, 6 mM MgCl2, 1 mM DTT, 0.05% NP-40, 1 ug/ul heparin, 40 U RNaseOUT, room temperature 20 min, 6% native PAGE 0.5x TBE; pull-down at room temperature on His-tag Dynabeads, 1x pull-down buffer (composition not stated). The settings on record: protein: recombinant; tags: His tag (nickel column); label: 5' digoxigenin.

Data set [5] has as its target T1, rLbRBP42. The data set can be described thus: competition; vs 12.5 nM labeled N2; decrease of complex only at 4-fold cold RNA; EMSA: 10 mM HEPES pH 7.3, 20 mM KCl, 6 mM MgCl2, 1 mM DTT, 0.05% NP-40, 1 ug/ul heparin, 40 U RNaseOUT, room temperature 20 min, 6% native PAGE 0.5x TBE; pull-down at room temperature on His-tag Dynabeads, 1x pull-down buffer (composition not stated). The settings on record: protein: recombinant; tags: His tag (nickel column).

The target in data set [6] is T2, rLbSCD6. The data set is described as follows: competition; vs 12.5 nM labeled N2; completely competed at 1-fold cold RNA; EMSA: 10 mM HEPES pH 7.3, 20 mM KCl, 6 mM MgCl2, 1 mM DTT, 0.05% NP-40, 1 ug/ul heparin, 40 U RNaseOUT, room temperature 20 min, 6% native PAGE 0.5x TBE; pull-down at room temperature on His-tag Dynabeads, 1x pull-down buffer (composition not stated). To be noted: protein: recombinant; tags: His tag (nickel column).

B1: 3' UTR-II.1 antisense (ssRNA)
RNA: UACAGAAAAUAAAAAAACACACACAAAAUAUAAAAAGAGGAAAGCAUGAUU
On to B1, for which the binding result with rLbRBP42 [1] and with rLbSCD6 [2] was “no binding” throughout.

B2: 3' UTR-II.1 motif (ssRNA)
RNA: AUGUCUUUUAUUUUUUUGUGUGUGUUUUAUAUUUUUCUCCUUUCGUACUAA
As to B2, the binding result in the data set with rLbSCD6 [3] and with rLbRBP42 [4] was “binds” each time.

B3: 3' UTR-II.1 motif, cold (ssRNA)
RNA: AUGUCUUUUAUUUUUUUGUGUGUGUUUUAUAUUUUUCUCCUUUCGUACUAA
As for B3, the binding result with rLbRBP42 [5] and with rLbSCD6 [6] was “binds” each time.
